# Assay results published in the RNAGym collection of RNA variant scans (doi:10.1073/pnas.2313332121).
# B1: TPR t1 (parent)
# chain: GACCAAUCUGCCCUCAGAGCUCGAGAACAUCUUCGGAUGCAGAGGAGGCAGGCUUCGGUGGCGCGAUAGCGCCAACGUCCUCAACCUCCAAUGCAUCCCACCACAUGAUGAUGCCUGAAGAGCCUUGGUUUUUUG
# Variants of: B1
# Assay: polymerase ribozyme fitness, log enrichment relative to wild type (log ratio); higher = more active; in vitro selection for triplet polymerase activity
# How it was run: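 Both subunits of a heterodimeric triplet polymerase ribozyme were given their own mutant library, built by PCR and transcribed. Each library was annealed with a biotinylated primer, the partner subunit and triplets, incubated frozen at −7 °C, and its extended constructs gel-excised, captured on streptavidin beads and amplified by RT-PCR, all in one round done in triplicate. Fitness is the logarithm of genotype enrichment relative to wild-type enrichment, with replicates averaged by inverse-variance weighting. That logarithm is base 2, and Illumina-sequenced genotypes needed ≥10 input reads and ≥1 read per output.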
row,Variant,polymerase ribozyme fitness (log ratio)
1,GACCAAUCUGCUCUCAGAGCUCGAGAACAUCUUCGGAUGCAGAGGAGGCAGGCUUCGGUGGCGCGAUAGCGCCAACGUCCUCAACCUCCAAUGCAUCCCACCACAUGAUGAUGCCUGAAGCGCCUUGGUUUUUUG [C12U A121C],2.05
2,GACCAAUCUGCCCUCAGAGCUCGAGAACAUCUUCGGAUGCAGAGGAGGCAGGCUUCGGUGGGGCGAUAGCGCCAACGUCCUCAACCUCCAAUGCAUCCCACCACAUGAUCAUGCCUGAAGAGCCUUGGUUUUUUG [C62G G110C],-6.06
3,GACCAAUCUGCCCUAAGAGCUCGAGAACAUCUUCGGAUGCAGAGGAGGCAGACUUCGGUGUCGCGAUAGCGCCAACGUCCUCAACCUACAAUGCCUCCCACCACAUGAUGACGCCUGAAGAGCUUUGGUUUUUUG [C15A G52A G61U C88A A95C U112C C124U],-1.64
4,GACCAAUCAGCCCUCAGAGCUCGAGAACAUCUUCGGAUGCAGAGGAGGCAGGCUUCGGUGGCGCGAUAUCGCCAACGUCCUCAACCUCCAAUGCAUCCCACCACAUGAUGAUGCCUGAAGAGCCUUGGUUUUUUG [U9A G69U],0.755
5,GACCAAUCUGCCCUCAGAGCUCGAGUACAUCUUCGGAUGCAGAGGAGGCAGGUUUCGGUGGCGCGAUACCGCCAACGUCCUCAACCUCCAAUGCAUCCCACCACAUGAUGAUGCGUCAAGAGCCUUGGUUUUGUG [A26U C53U G69C C115G G117C U133G],-6.29
6,GACCAAUCUGCUCUCAGAGCUCGAGAACAUCUUCGGAUGCAGAGGAGGCAGGCUUCGGUGGCGCGAUAGCGCCAACGUCCUCAACCUCGAAUGCAUCCCACCACAUGAUGAUGCCUGAAGAGCCUUGGUUUUUUG [C12U C89G],-0.883
7,GACCAAUCUGCCCUCAGAGCUCGAGAACAUCUUCGGAUGCAGAGGAGGCAGGCUUCGGUUGCGCGAUAGCGCCAACGUCCUGAACCUCCAAUGCAUCCCACCACAUGAUGAUGCCUGAAGAGCCUUGGUUUUUUG [G60U C82G],-1.12
8,GACCAAUCUGCCCUCAGAGCUCGAGAACAUGUUCGGAUGCAGAGGAGGCAGGCUUCGGUGGCGCGAUAGCGCCAACGUCCUCAACCUCCAAUGCAUCCCACCACAUGAUGAUGCCUGAAAAGCCUUGGUUUUUUG [C31G G120A],-5.69
9,GACCAAUCUGCCCUCAGAGCUCGAGAACAUCUUCGGAUGCAGAGGAGGCAGGCUUCGGUGGCGCGAUAGCGCCAACGUCCUCAACCUCCACUGCAUCCCACCAUAUGAUGAUGCCUGAAGAGCCUUGGUUUUUUG [A91C C104U],-1.08
10,GACCAAACUGCCCUCAGAGCUCGAGAACAUCUUCGGAUGCAGAGGAGGCAGGCUUCGGUCGCGCGAUAGCGUCAACGUCCUCAACCUCCAAUGCAUCCCACCACAUGAUGAUGCCUGAAGAGCCUUGGUUUUUUG [U7A G60C C72U],0.796
11,GACCAAUCUGCCCUCAGAGCUCGAGAACAUCUUCGGAUGCAGAUGAGGCAGGCUUCGGUGGCGCGAUAGCGCCAACGUCCUCAACCUCCAAUGCAUCCCACCACAUGAUGAUGCCUGAAGUGCCUUGGUUUUUUG [G44U A121U],0.755
12,GACCAAUCUGGCCUCAGAGCUCGAGAACAUCUUCGGAUGCAGAGGAGGCAGGCUUCGGUAGCGCGAUAGCGCCAACGUCCUCAACCUCCAAUGCAUCCCACCACAUGAUGAUGCCUGAAAAGCCUUGGUUUUUUA [C11G G60A G120A G135A],1.87
13,GACCAAUCUGCCCUCAGAGCUCGAGAACAUCUUCGGAUGCAGAGGAGGCAGGCUUCGGUAGCGCGAUAGCGCCAACGUCCUCAACCUCCAAUGCAUCCCACCACAUGAUGAUGCCUCAAGAGCCUUGGUUUUUUG [G60A G117C],-2.42
14,GACCAAUCUGCCCUCAGAGCUCGAGAACAUCUUCGGAUGCAGAGGAGGCAGGCUUCGGUGGCGCGAUAGCGCCAACGUCCUCAACCUCCAAUGCAUCUCACCACAUGAUGAUGCCUGAAGAGCCUUGGUUUUUUG [C98U],-1.2
15,GACCAAUCUGCCCUCAGAGCUCGAGAACAUCUUCGGAUGCAGAGGAGGCAGGCUUCGGUGGCGCGAUACCGCCAACGUCCUCAACCUCCAAUGCAGCCCACCACACGAUGAUGCCUGAAGAGCCUUGGUUUUUUG [G69C U96G U106C],-3.19
16,GACCAAUCUGCCCUCAGAGCUCGAGAGCAUCUUCGGAUGCAGAGGAGGCGGGCUUCGGUGGCGCGAUAGCGCCAACGUCCACAACCUCCAAUGCAUCCCACCACAUGAUGAUGCCUGAAGAGCCUUGGUUUUUUG [A27G A50G U81A],-1.56
17,GACCAAUCUGCCCUCAGAGCUCGAGAACAUCUUCGGAUGCAGAGGAGGCAGGCUUCGGUGGCGCGAUAGCGCCAACGUCCUCAACCUCCAAUGCAUCCCACCACAUCAUGAUGCCUGAACAGCCUUGGUAUUUUG [G107C G120C U130A],-4.61
18,GACCAAUCUGCCCUCAGGGCUCGAGAACAUCUUCGGAUGCAGUGGAGGCAGGCUUCGGUGGCGCGAUAGCGCCAACGUCCUCAACCUCCAAUGCAUCCCAGCACAUGAUGAUGCCUGAAAAGCCUUGGUUUUUUG [A18G A43U C101G G120A],-4.32
19,GACCAAUCUGCCCUCAGAGCUCGAGAACAUCUUCGGAUGCAGAGGAGGCGGGCUUCGGUGGCGCGAUAGCGCCAACGUCCUCAACCUGCAAUGCAUCCCACCACAUGAUGAUGCCUGAAAAGCUUCGGUUUUUUG [A50G C88G G120A C124U U126C],0.11
20,GACCAAUCUGACCUCAGAGCUCGAGAACAUCUUCGGAUGCAGAGGAGGCAGGCUUCGGUGGCGCGUUAGCACCAACGUCCUCAACCUCCAAUGCAUCCCACCACAUGAUGAUGCCUGAAGCGCCUUGGUAUUUUG [C11A A66U G71A A121C U130A],-1.61
21,GACCAAUCUGCCCUCAGAGCUCGAGAACAUCUUCGGAUGCAGAGGAGGCAGGCUUCGGUGGCGCGAUGGCGCCAACGUCCUCAACCUCCAAUGCAUACCACCACAUGAUGAUGCCUGAAGAGCCUUGGUUUUUUG [A68G C97A],-7.14

row,Variant,polymerase ribozyme fitness (log ratio)
1,GACCAAUCUGCCCUCAGAGCUCGAGAACAUCUUCGGAUGCAGAGGAGGCAGACUUCGGUGGCGCGAUAGCGCCAACGCCCUCAACAUCCAAUGCAUCCCACCACAUGAUGAUGCCUGAAGAGCGUUGAUUUUUUG [G52A U78C C86A C124G G128A],-1.71
2,GACCAAUCUGCCCUCAGAGCUCGAGAACAUCUUCGGAUGCAGAGGAGGCAGGCUUCGGUGGUGCGAUAGCGCCAACGUCCUCAACCUCCAAUGCAUCCCACCACAUGAUGAUGCCUUAAGAGCCUUGGUUUUUUG [C62U G117U],-2.6
3,GACCAAUCUGCCCUCAGAGCUCGAGAACAUCUUCGGAUGCAGAGGAGGCAGGCUUCGGUGGCGUGUUAGCGCCAACGUCCUCAACCUCCAAUGCAUCCCACCACAUGAUGAUGCCUGAAGAGCCUUGGUUUUUUG [C64U A66U],-0.148
4,GACCAAUCUGCCCUAAGAGCUCGAGAACAUCUUCGGAUGCAGAGGAGGCAGGCUUCGGUGGCGCGAUAGCGCCAACGUCCUCAACCUUCAAUGCAUCCCACCACAUGAUGAUGCCUGAAGAGCCUUGGUUUUUUG [C15A C88U],-2.17
5,GACCAAUCUGCCCACAGAGCUCGAGAACAUCUUCGGAUGCAGAGGAGGCAGGCUUCGGUGGCGCGAUAGAGCCAACGUCCUCAACCUCCAAUGCAUCCCACCACAUGAUGAUGCCUGAAGAGCCUUGGUUUUUUG [U14A C70A],-4.09
6,GACCGAUCAGCCCUCAGAGCUCGAGAACAUCUUCGGAUGCAGAGGAGGCAGUCUUCGGUGGCGCGAUAGCGCCAACGUCCUCAACCUCCAAUGCAUCCCACCACAUGAUGAUGCCUGAAGAGCCUUGGUUUUUUG [A5G U9A G52U],-1.25
7,GACCAAUCUGCCCUCAGAGCUCGAGAACAUCUUCGGAUGCAGAGGAGACAGGCUUCGGUGGCGCGAUAGCGCCAACUUCCUCAACCUCCAAUGCAUCCCACCACAUGAUGAUGCCUGAAGAGCCUUGGUUUUUUG [G48A G77U],-2.11
8,GACCAAUCUGCCCUCAACGCUUGAGAACAUCUUCAGAUGCAGAGGAGGCAGGCUUCGGUGGCGCGAUAGCGCCAUCGUGCUCAACCUCCGAUGCAUCCAACCACAUGAUGAUGCCUGAAGAGCGUUGGUUUUUUG [G17A A18C C22U G35A A75U C79G A90G C99A C124G],-5.46
9,GACCAAUGUGCCCACAGAGCUCGAGAACAUCUUCGGAUGCAGAGGAGGCAGGCUGCGGUGGCGCGAUAGCGCGAACGUCCUCAACCUCCAAUGCAUACCACCACAUGAUGAUGCCUGAAGAGCCUUGGUUUUUUG [C8G U14A U55G C73G C97A],-4.31
10,GACCAUUCUCCCCUCAGAGCUCGAGAACAUCUUCGGAUGCAGAGGAGGCAGGCUUCGGUGACGCGAUAGCGCCAACGUCCUCAACCUCAAAUGCAUCCCACCACAUGAUGAUGCCUGAAGAGCCAUGGUUUUUUG [A6U G10C G61A C89A U125A],-2.03
11,GACCAAUCUGCCCUCAGAGCUCGAGAACAUCUUCGGAUGCAGAGGAGGCAGGCUUCGGUAGCGCGAUAGUGCCAACGUCCUCAACCUCCAAUGCAUCCCACAACAUGAUGAUGCAUGAAGAGCCUUGGUUUUUUG [G60A C70U C102A C115A],-3.29
12,GACCAAUCUGCCCUCAGAGCUCGAGAACAUCUUCGGAUGCAGAGGAGGCAGGCUUCGGUGGCGCGAUAGCGCCAACGUCCGCAACCUCCAAUACAUCCCACCACAAGAUGAUGCCUGAAGAGUCUUGGUUUUUUG [U81G G93A U106A C123U],-3.83
13,GACCAAUCUGCCCUCAGAGCUCGAGAACAUCUUCGGAUGUAGAGGAGGCAGGCUUCGGUGGCGCGAUAGCGUCAACGUCCUCAACCUCCAAUGCAUCCCACCACAUGAUGAUGCCUGAAGAGCCUUGGUUUUUUG [C40U C72U],-1.69
14,GACCAAUCUGCCCUCAGAGCUCGAGAACAUCUUCGGAUGCAGAGGAGGCAGGCUUAGGUGGCGCGAUAGCGCCAACGUCCUCAACCUCCCAUGCAUCCCACCACAUGAUGAUGCCUGAAGAGCCUUGGUUUUUUG [C56A A90C],-1.57
15,GACCAAUCUGCCCUCAGAGCUUGAGAACAUCUUCGGAUGCAGAGAAGGCAGGCUUCGGUGGCGCGAUAGCGCCAACGUCCUCAACCUCCAAUGCAUCCCACCACAUGAUGAUGCCUGAAGAGCCUUGGUUUUUUG [C22U G45A],-4.02
16,GUCCAAUCUGCCCUCAAAGCUCGAGAAUAUCUUCGGAUGCAGUGGAGGCAGGCUUCGGUGCCGCGAUAGCGCCAACGUCCUCAACCUCCAAUGCAUCCCACCACAUGAUAAUGCCUGAAGAGCCUUGGUUUUUUG [A2U G17A C28U A43U G61C G110A],-6.04
17,GACCAAUCUGCCCUCAGAGCUCGAGAACAUCUUGGGAUGCAGAGGAGGCAGGCUUCGGUGGCGCGAUAGCGUCAACGUCCUCAACCUCCAAUGCAUCCCACCACAUGAUGAUGCCUGAAGAGCCUUGGUUUUUUG [C34G C72U],-5.89
18,GGCCAAUCUGCCCUCAGAUCUCGAGAACAUCUUCGGAUGCAGAGGAGGCAGGCUUCGGUGGUGCGAUAGCGCCAACGUCCUCAACUUCCAAUGCAUCCCACCACAUGAUGAUGCCUGAAGAGCCUUGGUUUUUUG [A2G G19U C62U C86U],-3.94
19,GACCCAUCUGCCCUCAGAGCUCGAGAACAUCUUCGGAUGCAGAGGAGGCAGGCUUCGGUGGCACGAUAGCGCCAACGUUCUCAACCUCCAAUGCAUCCCACCACAUGAUGAUGCCUGAAGAGCCUUGGUUUUUUG [A5C G63A C79U],-1.41
20,GACCAAUCUGCCCUCAGAGCUCGAGAACAUCUUCGGAUGCAGAGGAGGCAGGCUUCGGUGGCGCGAUAGCGCCAACGUCAUCAACCUCCAAUGCACCCCACCACAUGAUGAUGCAUGAAGAGCCUUGGUUUUUUG [C80A U96C C115A],-3.34
21,GACCAAUCUGCCCUCAGAGCUCGAGAACAUCUUCGGAUGCAGAUGAGGCAGGCUUCGGUGGCGCGAUAGCGCCAACCUCCUCAACCUCCAAUGCAUCCCACCACAUGAUGAUGCCUGAAGAGCCUUGGUUUUUUG [G44U G77C],-2.05
